Test results: patent publication US20260250769, “METHODS FOR DETERMINING THE PRESENCE OR RISK OF DEVELOPING FACIOSCAPULOHUMERAL DYSTROPHY (FSHD)” (Fred Hutchinson Cancer Center, published 2026)

B1: TRIM48 (dsDNA)
DNA 1: AGGAGTGATGATAATTTAATCAGCCGTGCAA
DNA 2: TTGCACGGCTGATTAAATTATCATCACTCCT
B2: TRIM48mut (dsDNA)
DNA 1: AGGAGTGATGATACTTTTATGAGCCGTGCAA
DNA 2: TTGCACGGCTCATAAAAGTATCATCACTCCT
B3: CSF1R (dsDNA)
DNA 1: CCAGGTGGAGATAATTGAATCATGGGGGCAG
DNA 2: CTGCCCCCATGATTCAATTATCTCCACCTGG
B4: CSF1Rmut (dsDNA)
DNA 1: CCAGGTGGAGATACTTGTATGATGGGGGCAG
DNA 2: CTGCCCCCATCATACAAGTATCTCCACCTGG
B5: THE1D (dsDNA)
DNA 1: CCTGTGGGAGGTAATCCAATCATGGAGGCAG
DNA 2: CTGCCTCCATGATTGGATTACCTCCCACAGG
B6: THE1Dmut (dsDNA)
DNA 1: CCTGTGGGAGGTACTCCTATGATGGAGGCAG
DNA 2: CTGCCTCCATCATAGGAGTACCTCCCACAGG

Columns and labels:
DUX4-fl [1] = biological target: T1, DUX4-fl (Homo sapiens, UniProt Q9UBX2 SEQ:1-424); assay: EMSA; supershift with E14-3; cold self competitor reduces binding; conditions: tags: from pCS2-DUX4-fl, TNT SP6 wheat germ extract; label: 32P
T1 sequence (Q9UBX2 whole entry): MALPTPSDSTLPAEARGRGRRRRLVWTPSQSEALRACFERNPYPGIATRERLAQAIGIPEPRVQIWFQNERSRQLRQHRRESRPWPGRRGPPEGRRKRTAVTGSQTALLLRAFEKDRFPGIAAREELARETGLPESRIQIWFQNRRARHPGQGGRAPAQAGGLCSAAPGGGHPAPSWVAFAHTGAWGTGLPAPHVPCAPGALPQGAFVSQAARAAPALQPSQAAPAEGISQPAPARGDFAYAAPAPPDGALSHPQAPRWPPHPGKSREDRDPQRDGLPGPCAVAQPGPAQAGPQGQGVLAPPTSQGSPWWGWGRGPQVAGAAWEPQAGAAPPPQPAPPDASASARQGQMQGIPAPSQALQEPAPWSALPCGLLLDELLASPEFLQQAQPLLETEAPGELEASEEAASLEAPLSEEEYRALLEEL
Procedure: (§1) EMSA was performed with ³²P-labeled 31-bp oligonucleotides from endogenous genomic sequences containing the putative DUX4 binding site as probes (sequences below; only forward shown). Radiolabeled probes were incubated with in vitro translated protein generated from pCS2-DUX4-fl or pCS2-DUX4-s² vectors using the TNT SP6 Coupled Wheat Germ Extract System (Promega) according to manufacturer's instructions. To obtain supershift of protein-DNA complexes, 0.1 μg of E14-3 anti-DUX4 rabbit monoclonal antibody was added to the mixtures. For competition experiments, excess unlabeled probes of either wild-type or mutant sequences were included in the binding reaction. The gels were prepared and run as previously described (Knoepfler et al., Nucleic Acids Res 27:3752-3761 (1999)).

DUX4-s = DUX4-s (Homo sapiens); assay: EMSA; supershift with E14-3; conditions: tags: from pCS2-DUX4-s2, TNT SP6 wheat germ extract; label: 32P
Sequence of DUX4-s (Homo sapiens) (Q6RFH8 other isoform, or with tags, fused parts or gaps): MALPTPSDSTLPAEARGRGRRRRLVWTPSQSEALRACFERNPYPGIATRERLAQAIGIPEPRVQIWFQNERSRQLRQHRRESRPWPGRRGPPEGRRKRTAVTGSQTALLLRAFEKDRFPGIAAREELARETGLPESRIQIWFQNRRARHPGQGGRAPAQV
Procedure: as §1

DUX4-fl [2] = biological target: T1, DUX4-fl; assay: competition; cold mutant does not compete with TRIM48 probe; conditions: tags: from pCS2-DUX4-fl, TNT SP6 wheat germ extract
Procedure: as §1

DUX4-fl [3] = biological target: T1, DUX4-fl; assay: EMSA; cold self competitor inhibits binding; conditions: tags: from pCS2-DUX4-fl, TNT SP6 wheat germ extract; label: 32P
Procedure: as §1

DUX4-fl [4] = biological target: T1, DUX4-fl; assay: competition; cold mutant does not compete with CSF1R probe; core printed as … in legend; conditions: tags: from pCS2-DUX4-fl, TNT SP6 wheat germ extract
Procedure: as §1

DUX4-fl [5] = biological target: T1, DUX4-fl; assay: competition; cold mutant does not compete with THE1D probe; conditions: tags: from pCS2-DUX4-fl, TNT SP6 wheat germ extract
Procedure: as §1

| Binder | binding result (DUX4-s) | binding result (DUX4-fl [3]) | also measured |
| --- | --- | --- | --- |
| B1 | binds | – | binding result (DUX4-fl [1]): binds |
| B2 | – | – | binding result (DUX4-fl [2]): no binding |
| B3 | binds | binds | – |
| B4 | – | – | binding result (DUX4-fl [4]): no binding |
| B5 | – | binds | – |
| B6 | – | – | binding result (DUX4-fl [5]): no binding |
